# T1: GST-εRACK (human εRACK expressed as a GST fusion protein) (human, UniProt P35606 1-906)
# T1 construct: 10 ng was immobilized on Glutathione-Sepharose 4B beads; also called immobilized GST-εRACK; not shown: glutathione S-transferase (GST) tag of baculovirus vector PacG3X (BD Biosciences)
# T1 sequence (looked up): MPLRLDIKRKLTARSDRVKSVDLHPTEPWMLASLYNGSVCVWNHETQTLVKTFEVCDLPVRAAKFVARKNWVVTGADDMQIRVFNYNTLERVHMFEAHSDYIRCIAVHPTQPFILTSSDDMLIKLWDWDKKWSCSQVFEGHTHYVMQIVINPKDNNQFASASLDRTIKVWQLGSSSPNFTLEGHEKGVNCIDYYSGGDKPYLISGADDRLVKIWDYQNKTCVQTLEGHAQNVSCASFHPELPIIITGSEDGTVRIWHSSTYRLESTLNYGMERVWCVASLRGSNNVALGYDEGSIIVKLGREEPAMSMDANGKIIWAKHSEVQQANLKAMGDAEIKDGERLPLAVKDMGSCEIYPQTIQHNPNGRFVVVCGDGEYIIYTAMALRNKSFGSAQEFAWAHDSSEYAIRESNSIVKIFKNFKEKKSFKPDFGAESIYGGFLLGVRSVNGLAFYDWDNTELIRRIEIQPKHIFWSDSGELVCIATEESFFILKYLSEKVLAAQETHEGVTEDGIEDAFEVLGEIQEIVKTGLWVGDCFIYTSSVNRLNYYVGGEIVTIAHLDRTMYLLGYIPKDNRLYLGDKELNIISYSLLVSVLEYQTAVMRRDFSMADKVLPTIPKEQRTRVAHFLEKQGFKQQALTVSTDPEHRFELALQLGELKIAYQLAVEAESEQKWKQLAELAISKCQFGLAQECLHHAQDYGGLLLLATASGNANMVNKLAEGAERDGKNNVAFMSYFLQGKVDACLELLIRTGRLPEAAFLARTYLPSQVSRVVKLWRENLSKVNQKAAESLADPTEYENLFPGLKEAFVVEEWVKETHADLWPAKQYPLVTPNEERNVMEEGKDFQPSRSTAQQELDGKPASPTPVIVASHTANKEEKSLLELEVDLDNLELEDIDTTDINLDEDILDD
# B1: D(86)A εPKC mutant (enzyme, human, UniProt Q02156 1-737, looked up)
# chain: MVVFNGLLKIKICEAVSLKPTAWSLRHAVGPRPATFLLDPYIALNVDDSRIGQTATKQKTNSPAWHDEFVTDVCNGRKIELAVFHAAPIGYDDFVANCTIQFEELLQNGSRHFEDWIDLEPEGRVYVIIDLSGSSGEAPKDNEERVFRERMRPRKRQGAVRRRVHQVNGHKFMATYLRQPTYCSHCRDFIWGVIGKQGYQCQVCTCVVHKRCHELIITKCAGLKKQETPDQVGSQRFSVNMPHKFGIHNYKVPTFCDHCGSLLWGLLRQGLQCKVCKMNVHRRCETNVAPNCGVDARGIAKVLADLGVTPDKITNSGQRRKKLIAGAESPQPASGGSPSEEDRSKSAPTSPCDQEIKELENNIRKALSFDNRGEEHRAASSPDGQLMSPGENGEVRQGQAKRLGLDEFNFIKVLGKGSFGKVMLAELKGKDEVYAVKVLKKDVILQDDDVDCTMTEKRILALARKHPYLTQLYCCFQTKDRLFFVMEYVNGGDLMFQIQRSRKFDEPRSRFYAAEVTSALMFLHQHGVIYRDLKLDNILLDAEGHCKLADFGMCKEGILNGVTTTTFCGTPDYIAPEILQELEYGPSVDWWALGVLMYEMMAGQPPFEADNEDDLFESILHDDVLYPVWLSKEAVSILKAFMTKNPHKRLGCVASQNGEDAIKQHPFFKEIDWVLLEQKKIKPPFKPRIKTKRDVNNFDQDFTREEPVLTLVDEAIVKQINQEEFKGFSYFGEDLMP
# notes: Used as the soluble fraction of a Hi5 insect cell lysate containing 100 ng εPKC protein; also called D(86)A ΨεRACK mutant; A mutant
# Biological target: T1, GST-εRACK (human εRACK expressed as a …)
# Assay: pull-down of insect cell-expressed εPKC on GST-εRACK immobilized on glutathione-Sepharose beads, no phospholipid activators, Western blot with anti-εPKC V5
# Method: RACKs bind active PKC [Mochly-Rosen, D. & Gordon, A. S., FASEB J. 12:35-42 (1998); Mochly-Rosen, D. et al., Molec. Biol. Cell. (formerly Cell Regulation) 1:693-706 (1990).
# Insect cells expressing either εPKC or GST-εRACK were lysed as described in Example 4. GST-εRACK, 10 ng was immobilized on Glutathion-Sepharose 4B beads (Amersham-Pharmacia), and washed thoroughly with wash buffer (20 mM Tris-HCl pH 7.5, 2 mM EDTA, 100 mM NaCl, 12 mM pME, and 0.1% TritonX-100). Immobilized GST-εRACK was then incubated with the soluble fraction of insect cell lysates containing 100 ng Wt, D(86)A, or D(86)N εPKC protein, in the presence or absence of phospholipid activators (PL) (phosphatidylserine 12 μg/reaction and, Sn-1,2 dioleoylglycerol 400 ng/reaction) for 1 hour at 4° C. Upon thorough washing with wash buffer, bound proteins were eluted in SDS-PAGE sample buffer and proteins separated on 8% SDS-PAGE gels. The amount of εPKC interacting with εRACK was determined by Western blot probing for εPKC with anti εPKC-V5 antibodies. Blots were then re-probed with ant-GST (Santa Cruz) to verify that the same amount of GST-εRACK was present in each binding assay. All other methods for this Example were performed as described, for example, in Example 4.
binder,measurement,value
B1,fold binding relative to D(86)N or Wt εPKC (absence of PL activators),≥ 2 fold

# — patent publication US20050187156A1 (Stanford University, published 2005)
